Target: alpha-thrombin (human, UniProt P00734;P00734 328-363;364-622)
Experiment: SPR

Binder	Kd [nM]
CCUUUGGUUCGGAUAAUUAUUAAGUAUUGUCUUCAUUCA (structured_RNA, RNA (U for T); 2'-F C and U, 2'-OH A and G) [Tbn#3]	1.4
UGAGGUGUUUGGGGUACUACUGGUAAAGGAUUUUCAUCUA (structured_RNA, RNA (U for T); 2'-F C and U, 2'-OH A and G) [Tbn#6]	1.7
